Among the data in publication PMC9170159 (Proceedings of the National Academy of Sciences of the …, 2022) are Kd values, retold here.

Assay [1] has as its target SARS-CoV-2 spike receptor-binding domain (RBD), Wuhan-Hu-1, His-tagged (SARS-CoV-2 (Wuhan-Hu-1), UniProt P0DTC2). Description: BLI. The conditions noted are these: both partners purified.
The target in assay [2] is SARS-CoV-2 (Wuhan-Hu-1) spike receptor-binding domain, His-tagged (SARS-CoV-2, UniProt P0DTC2 319-541). Description: BLI. Conditions: both partners purified.

B1: NCI-CoV-7A3 monomeric VHH (VHH-His) (VHH)
VHH: QVQLVESGGGSVQPGGSLRLSCVVSGYTSSSRYMGWFRQVPGKGLEWVSGIKRDGTNTYYADSVKGRFTISQDNAKNTVYLQMNSLKPEDTAMYYCAAGSWYNQWGYSMDYWGKGTQVTVSS
In general, Kd refers to a measure of binding affinity in units of concentration. Low readings indicate higher affinity, high ones lower affinity. As to B1, the Kd in assay [1] is 0.96 nM. In other words, the sub-nanomolar range.

B2: NCI-CoV-2F7 VHH-hFc fusion protein (Fc fusion)
VHH: QVKLEESGGGSVQSGGSLRLSCTVSRDTNTNINRCMGWFRQAPGKGLETVATINRDGTNTYYTDAVKGRFTISQDNVKNTVYLQMNNLTPEDTGTYICNAMGRGSGSRCDNWDPNYWGQGTQVTVSS
notes: also called 2F7 VHH-Fc; source: Expi293 cells, transfected, purified (protein A column)
B2 returned a Kd in assay [2] of 0.77 nM.

B3: NCI-CoV-2F7 monomeric VHH (VHH-His) (VHH)
VHH: B2 VHH
B3 showed a Kd in assay [1] of 0.75 nM.

B4: NCI-CoV-8A2 monomeric VHH (VHH-His) (VHH)
VHH: AVQLVDSGGGSVQAGGSLRLSCAASGYTYSICTMGWYRQAPGEGLEWVSGINADGSNTHYTDSVKGRFTISRDNAKKTLYLQMNSLKPEDTAIYYCAAHGTYDKYAPCGGFAGTYTYWGQGTQVTVSS
As to B4, the Kd in assay [1] turned out to be 0.8 nM. This Kd and that of the molecule before are within 1.5-fold of each other.
